Experimental data published in patent US9328139B2, “Cyclin based inhibitors of CDK2 and CDK4” (University of South Carolina, priority 2010, dated 2016).
Like-named read-outs stand apart in the source and are kept apart here.

Tests used:
[1] = tested on: retinoblastoma (Rb)-positive tumor cells; settings: cited from earlier work
CDK4/Cyclin D1 = target: T1, CDK4/Cyclin D1 (Homo sapiens, UniProt P24385); experiment: CDK4/Cyclin D1 in vitro kinase assay (32P filter capture, GST-Rb substrate); assay type: biochemical
T1 construct: performed using full-length recombinant CDK2/cyclin A2 and CDK4/Cyclin D1; GST (N); purchased SignalChem, Richmond, Canada; host or cells: Sf9 insect cells (baculovirus)
T1 sequence (P24385 whole entry): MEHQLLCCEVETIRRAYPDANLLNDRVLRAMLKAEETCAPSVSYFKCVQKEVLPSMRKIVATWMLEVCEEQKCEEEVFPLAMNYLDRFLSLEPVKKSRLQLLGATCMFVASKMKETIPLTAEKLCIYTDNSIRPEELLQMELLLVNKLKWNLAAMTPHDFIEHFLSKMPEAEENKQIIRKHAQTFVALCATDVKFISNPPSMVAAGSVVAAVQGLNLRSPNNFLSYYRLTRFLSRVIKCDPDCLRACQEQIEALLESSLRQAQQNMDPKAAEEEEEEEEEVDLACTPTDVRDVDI
T1 sequence (P11802 whole entry partner): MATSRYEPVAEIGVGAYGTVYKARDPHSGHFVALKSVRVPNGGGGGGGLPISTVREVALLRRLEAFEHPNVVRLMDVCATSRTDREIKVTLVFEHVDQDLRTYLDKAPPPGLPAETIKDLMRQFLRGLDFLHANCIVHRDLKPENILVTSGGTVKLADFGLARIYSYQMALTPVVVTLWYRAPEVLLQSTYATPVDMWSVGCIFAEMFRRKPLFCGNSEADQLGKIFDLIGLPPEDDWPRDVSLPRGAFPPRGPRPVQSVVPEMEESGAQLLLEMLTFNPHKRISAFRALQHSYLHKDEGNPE
Protocol: CDK2/Cyclin A2 and CDK4/Cyclin D1 kinase assays were performed using full-length recombinant CDK2/cyclin A2 and CDK4/Cyclin D1 co-expressed by baculovirus in Sf9 insect cells using an N-terminal GST tag on both proteins. […] The [^32P]-ATP Assay cocktail was prepared in a designated radioactive working area by adding 150 ul of 10 mM ATP stock solution, 100 ul[^32P]-ATP (1 mCi/100 ul), 5.75 ml of kinase assay buffer I. 10 mM ATP Stock Solution was prepared by dissolving 55 mg of ATP in 10 ml of kinase assay buffer I. Store 200 μl aliquots at −20° C. […] The reaction was initiated by the addition of 5 μl [^32P]-ATP assay cocktail bringing the final volume up to 25 μl and incubating the mixture in a water bath at 30° C. for 15 minutes. After the incubation period, the reaction was terminated by spotting 20 μl of the reaction mixture onto individual pre-cut strips of phophocellulose P81 paper. The pre-cut P81 strip was air-dried and sequentially washed in a 1% phosphoric acid solution with constant gentle stirring. Radioactivity on the P81 paper was counted in the presence of scintillation fluid on a scintillation counter. […]
Activities of peptides previously tested against CDK2A and CDK4D were determined using this assay format.

In the case of `CC(=O)c1c(C)c2cnc(Nc3ccc(N4CCNCC4)cn3)nc2n(C2CCCC2)c1=O` [PD0332991], the cell cycle effect [1] is given as “G1 arrest”.
In the case of “HAKRRLIX8: HAKRRLIX with X8 = 4-pyridylalanine, SEQ ID NO: 24”, the “activity in the CDK4/cyclin D1 kinase assay (in words)” value (CDK4/Cyclin D1) is reported as “no observable activity” and the “activity in the CDK4/cyclin D1 kinase assay (in words)” value (CDK4/Cyclin D1; listed as p21 X8 derivative) is reported as “loses all activity”.
